Source: PMC2582393 (Developmental cell, 2008)
Substitutions are numbered along the chain they refer to.

T1: GST-CDC-48.3 full-length (FL), amino acids 1-724 (C. elegans, UniProt Q21222 1-724)
T1 sequence (looked up): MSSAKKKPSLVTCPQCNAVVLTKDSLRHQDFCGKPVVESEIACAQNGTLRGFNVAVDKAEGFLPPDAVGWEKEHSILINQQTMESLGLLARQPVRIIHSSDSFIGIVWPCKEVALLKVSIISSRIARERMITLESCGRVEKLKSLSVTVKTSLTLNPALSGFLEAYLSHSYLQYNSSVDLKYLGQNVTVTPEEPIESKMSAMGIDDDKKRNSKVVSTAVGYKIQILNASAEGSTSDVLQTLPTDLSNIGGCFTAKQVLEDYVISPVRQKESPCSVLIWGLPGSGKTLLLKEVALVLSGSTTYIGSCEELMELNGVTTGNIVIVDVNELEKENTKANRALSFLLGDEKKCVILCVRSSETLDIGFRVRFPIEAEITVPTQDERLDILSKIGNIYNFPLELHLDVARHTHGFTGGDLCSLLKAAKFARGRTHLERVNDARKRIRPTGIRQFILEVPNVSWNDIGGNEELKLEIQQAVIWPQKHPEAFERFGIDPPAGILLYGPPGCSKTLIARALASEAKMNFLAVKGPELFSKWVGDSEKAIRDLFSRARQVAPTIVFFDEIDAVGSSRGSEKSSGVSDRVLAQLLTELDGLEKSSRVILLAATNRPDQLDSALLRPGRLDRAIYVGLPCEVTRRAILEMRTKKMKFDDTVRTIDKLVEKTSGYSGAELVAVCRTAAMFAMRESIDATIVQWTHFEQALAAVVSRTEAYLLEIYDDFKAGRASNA

T2: GST-CDC-48.3 (N+D1), amino acids 1-441 (C. elegans, UniProt Q21222 1-441)
T2 sequence (looked up): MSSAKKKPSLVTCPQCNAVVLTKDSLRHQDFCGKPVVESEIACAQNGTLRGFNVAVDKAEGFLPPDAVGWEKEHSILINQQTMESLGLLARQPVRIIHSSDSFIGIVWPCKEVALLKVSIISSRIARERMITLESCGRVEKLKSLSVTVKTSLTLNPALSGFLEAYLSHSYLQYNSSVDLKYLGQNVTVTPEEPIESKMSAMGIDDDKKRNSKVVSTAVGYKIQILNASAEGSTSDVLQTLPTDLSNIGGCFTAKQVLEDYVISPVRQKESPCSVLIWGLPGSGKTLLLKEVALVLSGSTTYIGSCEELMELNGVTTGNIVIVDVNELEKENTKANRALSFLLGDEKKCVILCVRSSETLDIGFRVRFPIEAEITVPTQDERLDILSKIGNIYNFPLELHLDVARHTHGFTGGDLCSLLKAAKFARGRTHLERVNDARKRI

T3: GST-CDC-48.3 (N+D1) K285T (C. elegans, UniProt Q21222 1-441, K285T)
T3 sequence (looked up): T2 sequence (looked up) with K285T

B1: GST-CDC-48.3 N (amino acids 1-225) (domain or fragment, C. elegans, UniProt Q21222 1-225, looked up)
chain: MSSAKKKPSLVTCPQCNAVVLTKDSLRHQDFCGKPVVESEIACAQNGTLRGFNVAVDKAEGFLPPDAVGWEKEHSILINQQTMESLGLLARQPVRIIHSSDSFIGIVWPCKEVALLKVSIISSRIARERMITLESCGRVEKLKSLSVTVKTSLTLNPALSGFLEAYLSHSYLQYNSSVDLKYLGQNVTVTPEEPIESKMSAMGIDDDKKRNSKVVSTAVGYKIQI
B2: AIR-2 (C. elegans Aurora B kinase), recombinant, GST tag removed (enzyme, UniProt O01427 1-305, looked up)
chain: MENKPPVINLPEKETVNTPQKGGKFTINDFEIGRPLGKGKFGSVYLARTKTGHFHVAIKVLFKSQLISGGVEHQLEREIEIQSHLNHPNIIKLYTYFWDAKKIYLVLEYAPGGEMYKQLTVSKRFSEPTAAKYMYEIADALSYCHRKNVIHRDIKPENLLIGSQGELKIGDFGWSVHAPSNKRQTMCGTMDYLPPEMVNGADHSDAVDLWAIGVLCYEFLVGKPPFEHEDQSKTYAAIKAARFTYPDSVKKGARDLIGRLLVVDPKARCTLEQVKEHYWIQGMMEAKIRAEKQQKIEKEASLRNH

Legend:
Experiment in all cases: pull-down
[1] = target: B2
[2] = target: T1, GST-CDC-48.3 full-length (FL), amino …
[3] = target: T2, GST-CDC-48.3 (N+D1), amino acids 1-441
[4] = target: T3, GST-CDC-48.3 (N+D1) K285T

binding result [1]	binding result [2]	binding result [3]	binding result [4]	Binder
binds				B1
	binds	binds	binds	B2
